Measured values published in IntAct's records for PubMed 17643121.

B1: BRCA1-A complex subunit Abraxas 1 (Homo sapiens), Q6UWZ7 (parent)
chain: MEGESTSAVLSGFVLGALAFQHLNTDSDTEGFLLGEVKGEAKNSITDSQMDDVEVVYTIDIQKYIPCYQLFSFYNSSGEVNEQALKKILSNVKKNVVGWYKFRRHSDQIMTFRERLLHKNLQEHFSNQDLVFLLLTPSIITESCSTHRLEHSLYKPQKGLFHRVPLVVANLGMSEQLGYKTVSGSCMSTGFSRAVQTHSSKFFEEDGSLKEVHKINEMYASLQEELKSICKKVEDSEQAVDKLVKDVNRLKREIEKRRGAQIQAAREKNIQKDPQENIFLCQALRTFFPNSEFLHSCVMSLKNRHVSKSSCNYNHHLDVVDNLTLMVEHTDIPEASPASTPQIIKHKALDLDDRWQFKRSRLLDTQDKRSKADTGSSNQDKASKMSSPETDEEIEKMKGFGEYSRSPTF

Variants of: B1
Settings: with brca1_human BRCA1, P38398
Chain of brca1_human BRCA1, P38398 (P38398 whole entry, looked up): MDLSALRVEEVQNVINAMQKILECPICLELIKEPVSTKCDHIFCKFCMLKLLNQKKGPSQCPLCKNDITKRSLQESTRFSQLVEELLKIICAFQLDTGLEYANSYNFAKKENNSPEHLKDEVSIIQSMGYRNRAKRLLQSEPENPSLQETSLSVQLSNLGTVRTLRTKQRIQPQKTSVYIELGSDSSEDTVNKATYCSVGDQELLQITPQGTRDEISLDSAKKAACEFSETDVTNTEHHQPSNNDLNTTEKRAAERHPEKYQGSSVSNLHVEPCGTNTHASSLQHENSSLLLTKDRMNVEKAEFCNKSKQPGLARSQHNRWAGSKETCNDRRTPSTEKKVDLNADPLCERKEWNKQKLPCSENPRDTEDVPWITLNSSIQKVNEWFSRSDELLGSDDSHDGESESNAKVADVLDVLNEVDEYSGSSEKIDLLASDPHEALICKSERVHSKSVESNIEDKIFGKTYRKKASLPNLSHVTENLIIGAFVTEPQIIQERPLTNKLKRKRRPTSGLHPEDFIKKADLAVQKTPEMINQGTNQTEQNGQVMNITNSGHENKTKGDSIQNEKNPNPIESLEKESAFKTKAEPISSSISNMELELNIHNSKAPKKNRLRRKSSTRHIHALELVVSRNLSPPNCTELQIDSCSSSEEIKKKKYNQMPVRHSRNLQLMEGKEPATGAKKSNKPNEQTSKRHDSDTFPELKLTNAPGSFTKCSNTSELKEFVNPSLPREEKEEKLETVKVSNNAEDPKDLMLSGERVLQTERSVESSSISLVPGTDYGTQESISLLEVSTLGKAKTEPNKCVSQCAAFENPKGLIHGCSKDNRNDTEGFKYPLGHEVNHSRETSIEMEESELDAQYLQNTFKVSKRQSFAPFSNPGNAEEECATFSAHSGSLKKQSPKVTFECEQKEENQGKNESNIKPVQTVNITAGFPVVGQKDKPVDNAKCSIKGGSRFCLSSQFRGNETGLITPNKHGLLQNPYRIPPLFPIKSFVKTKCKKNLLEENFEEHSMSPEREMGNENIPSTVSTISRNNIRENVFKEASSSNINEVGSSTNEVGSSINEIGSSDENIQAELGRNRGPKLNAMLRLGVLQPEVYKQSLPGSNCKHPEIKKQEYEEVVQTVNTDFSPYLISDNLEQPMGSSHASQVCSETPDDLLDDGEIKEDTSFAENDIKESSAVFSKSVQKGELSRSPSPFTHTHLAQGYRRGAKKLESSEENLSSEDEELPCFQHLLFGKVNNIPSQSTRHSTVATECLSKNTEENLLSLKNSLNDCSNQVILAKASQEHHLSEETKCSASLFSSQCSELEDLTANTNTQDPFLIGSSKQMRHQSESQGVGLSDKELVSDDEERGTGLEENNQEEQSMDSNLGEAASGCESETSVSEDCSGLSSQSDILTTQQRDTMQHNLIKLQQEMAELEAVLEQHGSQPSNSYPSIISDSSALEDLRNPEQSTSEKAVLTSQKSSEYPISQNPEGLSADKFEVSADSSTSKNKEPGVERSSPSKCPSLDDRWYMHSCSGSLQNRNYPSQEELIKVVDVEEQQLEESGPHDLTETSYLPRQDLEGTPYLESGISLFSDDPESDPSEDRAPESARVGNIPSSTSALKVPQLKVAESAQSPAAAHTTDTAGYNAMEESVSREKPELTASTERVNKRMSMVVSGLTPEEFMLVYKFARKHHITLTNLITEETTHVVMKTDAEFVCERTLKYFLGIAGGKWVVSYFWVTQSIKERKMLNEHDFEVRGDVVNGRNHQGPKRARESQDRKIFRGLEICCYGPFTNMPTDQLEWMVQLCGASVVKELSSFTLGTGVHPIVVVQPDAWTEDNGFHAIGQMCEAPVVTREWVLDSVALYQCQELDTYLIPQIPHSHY

| effect of a mutation on the interaction | Variant |
| --- | --- |
| decreasing interaction | S406A |
